The source of these data is article PMC10341432, “Cross-Linking Mass Spectrometry on P-Glycoprotein” (International Journal of Molecular Sciences, 2023).

The target of assay [1] is T1, P-glycoprotein (human) on NIH 3T3 MDR1 cells after PNGase F treatment (Homo sapiens, UniProt P08183, all N-linked oligosaccharides removed from ECL1 by PNGase F).
T1 construct: P-glycoprotein (MDR1, ABCB1), human; N-glycans of ECL1 removed on living cells; also called Pgp; deglycosylated Pgp; source: NIH 3T3 MDR1 mouse fibroblasts, human Mdr1 gene-transduced; living cells treated with PNGase F (50, 100 or 200 U/mL)
Briefly: flow cytometry on cells; living NIH 3T3 MDR1 cells treated with 0, 50, 100 or 200 U/mL PNGase F; 10 µg/mL 15D3 or UIC2 for 30 min at 37 °C in glucose-PBS; Alexa-488 anti-mouse goat secondary antibody. Conditions: one partner purified. (A flow cytometer gives signals particle by particle.)

For assay [2], the target named is T2, P-glycoprotein (human), as expressed on NIH 3T3 MDR1 cells (human, UniProt P08183, N-glycans on ECL1).
T2 construct: P-glycoprotein (MDR1, ABCB1), human; integral membrane protein on the cell surface; Cell line a gift from M. Gottesman; also called Pgp; multi-drug resistance protein 1; source: NIH 3T3 MDR1 mouse fibroblasts, human Mdr1 gene-transduced, stably expressing; on living cells and in membrane preparation (Mem-PER Plus kit)
The description is as above. To be noted: one partner purified.

T2 sequence (P08183 whole entry): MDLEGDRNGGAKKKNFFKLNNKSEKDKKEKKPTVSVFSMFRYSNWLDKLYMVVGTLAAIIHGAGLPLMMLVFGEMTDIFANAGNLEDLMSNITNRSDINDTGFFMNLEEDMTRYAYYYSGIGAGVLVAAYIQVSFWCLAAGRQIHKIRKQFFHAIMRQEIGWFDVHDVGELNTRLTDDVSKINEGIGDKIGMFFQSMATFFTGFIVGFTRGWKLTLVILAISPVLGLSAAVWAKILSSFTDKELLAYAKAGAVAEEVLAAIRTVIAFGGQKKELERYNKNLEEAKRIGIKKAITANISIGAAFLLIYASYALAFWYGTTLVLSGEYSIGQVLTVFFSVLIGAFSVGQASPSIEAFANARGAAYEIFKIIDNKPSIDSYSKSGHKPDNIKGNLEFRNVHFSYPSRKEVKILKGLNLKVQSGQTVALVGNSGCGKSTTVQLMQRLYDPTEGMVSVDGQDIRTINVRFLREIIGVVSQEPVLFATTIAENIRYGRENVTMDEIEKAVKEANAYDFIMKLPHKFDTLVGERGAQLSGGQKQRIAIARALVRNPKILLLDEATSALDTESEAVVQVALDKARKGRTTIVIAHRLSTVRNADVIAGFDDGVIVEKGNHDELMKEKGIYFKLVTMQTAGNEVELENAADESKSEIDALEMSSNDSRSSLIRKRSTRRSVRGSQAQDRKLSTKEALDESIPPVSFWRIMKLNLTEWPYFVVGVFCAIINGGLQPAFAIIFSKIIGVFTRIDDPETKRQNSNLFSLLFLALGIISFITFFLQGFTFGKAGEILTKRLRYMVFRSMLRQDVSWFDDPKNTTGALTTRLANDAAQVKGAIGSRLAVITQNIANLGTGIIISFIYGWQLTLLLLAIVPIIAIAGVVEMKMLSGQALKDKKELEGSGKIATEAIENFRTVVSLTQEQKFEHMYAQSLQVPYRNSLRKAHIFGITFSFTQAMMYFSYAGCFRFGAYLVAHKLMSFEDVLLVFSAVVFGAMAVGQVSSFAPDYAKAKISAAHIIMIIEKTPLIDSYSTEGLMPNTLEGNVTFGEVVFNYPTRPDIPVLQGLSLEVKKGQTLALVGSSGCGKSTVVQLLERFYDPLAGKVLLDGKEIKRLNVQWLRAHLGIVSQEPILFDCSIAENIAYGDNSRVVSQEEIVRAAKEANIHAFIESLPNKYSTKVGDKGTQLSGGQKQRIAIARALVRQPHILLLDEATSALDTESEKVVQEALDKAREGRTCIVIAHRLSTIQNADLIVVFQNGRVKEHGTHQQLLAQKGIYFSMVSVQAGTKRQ
T1 sequence (P08183 whole entry): as above

B1: 15D3 mouse monoclonal anti-Pgp antibody (antibody, V domains shown)
VH: EVKVVESGGVLVRPGGSLKLSCAASGFTFSRYTMSWVRQTPEKRLEWVATISSGGGNTYYPDSVKGRFTVSRDNAMSSLYLQMSSLRSEDTALYYCARYGAGDAWFAYWGQGTLVTVSA
VL: ELAMTQTPLSLPVSLGDQASISCRSSQSIVHSTGNTYLEWYLQKPGQSPKLLIYKVSNRFSGVPDRFSGSGSGTDFTLKISRLEAEDLGVYYCFQGSHFPRTFGGGTRLEIK
notes: mouse IgG1 constant part; IgG1; also called 15D3 mAb; source: hybridoma (ATCC HB-11342) supernatant or mouse ascites, purified (Protein G)
With B1, the binding result in assay [1] and in assay [2] was “binds” in each case.
